Target: c-Met (human, UniProt P08581 25-1390)
Assay: cell-based or functional assay

Chain of c-Met (P08581 25-1390): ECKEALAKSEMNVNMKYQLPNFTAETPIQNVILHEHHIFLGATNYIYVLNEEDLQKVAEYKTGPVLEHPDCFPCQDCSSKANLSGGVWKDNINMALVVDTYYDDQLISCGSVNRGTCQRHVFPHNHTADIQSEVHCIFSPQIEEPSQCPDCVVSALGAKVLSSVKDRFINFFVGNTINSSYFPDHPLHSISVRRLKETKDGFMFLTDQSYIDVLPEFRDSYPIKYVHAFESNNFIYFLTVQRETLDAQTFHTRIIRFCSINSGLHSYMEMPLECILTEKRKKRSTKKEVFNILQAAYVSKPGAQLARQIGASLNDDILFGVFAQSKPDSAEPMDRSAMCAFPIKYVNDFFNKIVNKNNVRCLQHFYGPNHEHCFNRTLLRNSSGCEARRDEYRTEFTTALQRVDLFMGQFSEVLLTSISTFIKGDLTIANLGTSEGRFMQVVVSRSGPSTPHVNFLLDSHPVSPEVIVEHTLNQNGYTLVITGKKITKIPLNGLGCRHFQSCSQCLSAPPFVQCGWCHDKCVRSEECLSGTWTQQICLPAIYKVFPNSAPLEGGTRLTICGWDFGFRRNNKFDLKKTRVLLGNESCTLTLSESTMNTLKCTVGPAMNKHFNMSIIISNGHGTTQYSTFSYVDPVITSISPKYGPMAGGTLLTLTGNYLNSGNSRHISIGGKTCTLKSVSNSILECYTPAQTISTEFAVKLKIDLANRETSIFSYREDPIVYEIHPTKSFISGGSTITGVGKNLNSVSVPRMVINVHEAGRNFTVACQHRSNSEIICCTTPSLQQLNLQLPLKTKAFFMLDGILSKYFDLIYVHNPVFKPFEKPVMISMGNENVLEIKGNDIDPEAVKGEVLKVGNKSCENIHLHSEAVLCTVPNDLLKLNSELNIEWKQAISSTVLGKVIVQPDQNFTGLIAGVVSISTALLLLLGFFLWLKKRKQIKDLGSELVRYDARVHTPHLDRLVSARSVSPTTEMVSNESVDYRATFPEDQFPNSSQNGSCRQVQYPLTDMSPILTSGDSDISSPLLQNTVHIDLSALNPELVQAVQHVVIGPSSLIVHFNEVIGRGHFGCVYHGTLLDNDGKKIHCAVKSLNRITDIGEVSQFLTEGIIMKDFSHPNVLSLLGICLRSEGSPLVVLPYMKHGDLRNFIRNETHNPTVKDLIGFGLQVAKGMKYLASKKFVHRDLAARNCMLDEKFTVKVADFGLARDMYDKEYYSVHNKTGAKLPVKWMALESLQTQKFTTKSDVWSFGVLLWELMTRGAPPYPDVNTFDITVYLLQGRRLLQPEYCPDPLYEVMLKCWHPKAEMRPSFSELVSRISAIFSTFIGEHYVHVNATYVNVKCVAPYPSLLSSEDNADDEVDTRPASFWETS

Binder | Cytotoxicity IC50 (nM), Calu-3 cells [nM] | Cytotoxicity IC50 (nM), HCC827 cells [nM] | Cytotoxicity IC50 (nM), HEK-293 cells (not different from control) [nM] | Cytotoxicity IC50 (nM), MIA PaCa-2 cells (not different from control) [nM] | Cytotoxicity IC50 (nM), NCI-H441 cells [nM] | Cytotoxicity IC50 (nM), NCI-H441 cells (second row so labelled) [nM] | Cytotoxicity IC50 (nM), NCI-H1573 cells (estimated due to curve-fitting issues) [nM] | Cytotoxicity IC50 (nM), SNU-5 cells [nM] | Cytotoxicity IC50 (nM), NCI-H820 cells [nM] | Cytotoxicity IC50 (nM), Hs 746T cells [nM] | Cytotoxicity IC50 (nM), NCI-H1573 cells [nM]
ADC-1 (AbA conjugated to linker drug LD1, structural formula VIII) (antibody, IgG1, V domains shown, TOP1i linker drug LD1 (structural formula V) linked via sulfhydryl groups of reduced cysteine residues; positions not given) VH: QVQLVQSGAEVKKPGASVKVSCKASGYIFTAYTMHWVRQAPGQGLEWMGWIKPNNGLANYAQKFQGRVTMTRDTSISTAYMELSRLRSDDTAVYYCARSEITTEFDYWGQGTLVTVSS VL: DIVMTQSPDSLAVSLGERATINCKSSESVDSYANSFLHWYQQKPGQPPKLLIYRASTRESGVPDRFSGSGSGTDFTLTISSLQAEDVAVYYCQQSKEDPLTFGGGTKVEIKR | 20 | 0.85 | > 60 | > 60 | 0.25 | 0.3 | ~1 | 0.19 |  |  | 
ADC-2 (AbA conjugated to linker drug LD2, structural formula IX) (antibody, IgG1, V domains shown, TOP1i linker drug LD2 (structural formula VI, maleimide, hydrolyzed) linked via sulfhydryl groups of reduced cysteine residues; positions not given) VH: QVQLVQSGAEVKKPGASVKVSCKASGYIFTAYTMHWVRQAPGQGLEWMGWIKPNNGLANYAQKFQGRVTMTRDTSISTAYMELSRLRSDDTAVYYCARSEITTEFDYWGQGTLVTVSS VL: DIVMTQSPDSLAVSLGERATINCKSSESVDSYANSFLHWYQQKPGQPPKLLIYRASTRESGVPDRFSGSGSGTDFTLTISSLQAEDVAVYYCQQSKEDPLTFGGGTKVEIKR |  | 0.9 |  | > 60 |  | 0.25 | ~1 |  | 0.16 |  | 
ADC-3 (AbA conjugated to linker drug LD3, structural formula X) (antibody, IgG1, V domains shown, TOP1i linker drug LD3 (structural formula VII, maleimide, hydrolyzed) linked via sulfhydryl groups of reduced cysteine residues; positions not given) VH: QVQLVQSGAEVKKPGASVKVSCKASGYIFTAYTMHWVRQAPGQGLEWMGWIKPNNGLANYAQKFQGRVTMTRDTSISTAYMELSRLRSDDTAVYYCARSEITTEFDYWGQGTLVTVSS VL: DIVMTQSPDSLAVSLGERATINCKSSESVDSYANSFLHWYQQKPGQPPKLLIYRASTRESGVPDRFSGSGSGTDFTLTISSLQAEDVAVYYCQQSKEDPLTFGGGTKVEIKR |  | 0.5 |  | > 60 |  |  |  |  | 0.06 | 0.05 | 1.1
